According to doi:10.1101/2020.04.13.035477:

Experiments:
Test in all cases: SPR
[1] = molecular target: H. polygyrus Alarmin Release Inhibitor (HpARI), full-length (Heligmosomoides polygyrus)
[2] = molecular target: HpARI_CCP1/2 (truncation of HpARI lacking CCP3) (Heligmosomoides polygyrus)
[3] = molecular target: HpARI_CCP2/3 (truncation of HpARI lacking CCP1) (Heligmosomoides polygyrus)
HpARI_CCP2/3 (truncation of HpARI lacking CCP1) (Heligmosomoides polygyrus), sequence (A0A3P7XL18 126-297): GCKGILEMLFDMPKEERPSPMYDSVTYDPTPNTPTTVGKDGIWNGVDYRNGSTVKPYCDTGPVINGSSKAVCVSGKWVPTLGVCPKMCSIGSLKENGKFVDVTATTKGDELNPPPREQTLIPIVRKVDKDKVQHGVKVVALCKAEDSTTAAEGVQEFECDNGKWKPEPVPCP

HpARI_CCP1/2 (truncation of HpARI lacking CCP3) (Heligmosomoides polygyrus), sequence (A0A3P7XL18 65-211): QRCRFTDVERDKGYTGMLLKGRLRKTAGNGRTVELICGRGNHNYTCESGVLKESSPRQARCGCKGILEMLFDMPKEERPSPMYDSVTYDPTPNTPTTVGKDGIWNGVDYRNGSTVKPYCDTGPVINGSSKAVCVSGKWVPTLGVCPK

recombinant murine IL-33 (from UniProt Q8BVZ5 1-266) (ligand)
Kd [1]: 1.1 nM | koff [1]: 0.00015 s⁻¹ | Kd [2]: 9.8 nM | koff [2]: 0.003 s⁻¹ | Kd [3]: 1.4 nM
